Residue numbers refer to the chain shown, from its start.

14 molecules from patent US20240190960A1 (Chugai, published 2024) can be followed below.

The labels stand for the following.
B1: SC044 (antibody, human IgG1, lambda, V domains shown)
VH: not shown
VL: QSVLTQPPSVSGAPGQRVTISCTGSSSNIGAGYDVHWYQQLPGTAPKLLIYGNSNRPSGVPDRFSGSKSGTSASLAITGLQAEDEADYYCQSYDDSRSAVVFGGGTKLTVLG
notes: also called adenosine-clamping antibody SC044
B2: SC045 (antibody, human IgG1, lambda, V domains shown)
VH: QVQLVESGGGLVQPGGSLRLSCAASGFTFSDHYMDWVRQAPGKGLEWVGRTRNKANSYTTEYAASVKGRFTISRDDSKNSLYLQMNSLKTEDTAVYYCARGPTLAYIGYMDYWGQGTLVTVSS
VL: B1 VL with D95G, R97L, A99V
notes: also called adenosine-clamping antibody SC045
B3: SC003 (antibody, human IgG1, lambda, V domains shown)
VH: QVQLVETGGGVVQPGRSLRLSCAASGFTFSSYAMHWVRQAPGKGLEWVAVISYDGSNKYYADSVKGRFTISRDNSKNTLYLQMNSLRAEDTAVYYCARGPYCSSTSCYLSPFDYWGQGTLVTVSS
VL: QSVLTQPPSVSAAPGQKVTISCSGNTSNIGNNYVSWYQQLPGTAPKLLIYRNSDRPSGVPDRFSGSKSGTSASLAITGLQAEDEADYYCQSYDTSLTAVIFGGGTKLTVLG
notes: also called adenosine-clamping antibody SC003
B4: SC002 (antibody, human IgG1, lambda, V domains shown)
VH: EVQLVQSGAEVKKPGASVKVSCKASGYTFTSYGISWVRQAPGQGLEWMGWISAYNGNTNYAQKLQGRVTMTTDTSTSTAYMELRSLRSDDTAVYYCARVSSGSQPDPPYYYYYGMDVWGQGTMVTVSS
VL: QSVLTQPASVSGSPGQSITISCTGTSSNVESYNLVSWYQQHPGKAPKFIIYEGTRRPSGISNRFSGANSGNAASLTISGLQAEDEADYYCLSYVPSRRRHVFGTGTKVTVLS
notes: also called adenosine-clamping antibody SC002
B5: SC032 (antibody, human IgG1, kappa, V domains shown)
VH: QVQLQQSGAEVKKPGSSVKVSCKASGGTFSSYAISWVRQAPGQGLEWMGRIIPILGIANYAQKFQGRVTITADKSTSTAYMELSSLRSEDTAVYYCAREGLTPYYYGSELGNGMDVWGQGTTVTVSS
VL: DIQLTQSPSSLSTFVGDRVTITCRTSQNINSYLNWYQQKPGKAPKLLISTTSNLQSGVPSRFSGSGSGTDFTLTINNLQPEDFAIYYCQQTKSFPLTFGGGTKLEIKR
notes: also called adenosine-clamping antibody SC032
B6: SC048 (antibody, human IgG1, lambda, V domains shown)
VH: QVQLQESGGGVVQPGRSLRLSCAASGFTFSSYAMHWVRQAPGKGLEWVAVISYDGSNKYYADSVKGRFTISRDNSKNTLYLQMNSLRAEDTAVYYCAKGYSYGPGYFFDYWGQGTLVTVSS
VL: SSELTQPPSVSVSPGQTANISCSADKLGGKYVSWYQQKPGQSPVLVMYQDKKRPSGIPERLSGSGSGNTATLTISGTQAMDEATYYCQTWDGRSLFFGGGTRLTVLS
notes: also called adenosine-clamping antibody SC048
B7: SC014 (antibody, human IgG1, lambda, V domains shown)
VH: EVQLVQSGGGLVQPGRSLRLSCAASGFTFDDYAMHWVRQAPGKGLEWVSGISWNSGSIGYADSVKGRFAISRDNAKNSLYLQMNSLRAEDTALYYCAKAWNDDAFDIWGQGTMVTVSS
VL: QSVVTQPPSVSGAPGQRVTVSCTGSNSNIGAGYDVHWYQQLPGTAPKLLIYGSNNRPSGVPDRFSASRSGTSASLAITGLQAEDEAEYYCQTYDTGLSGPGVVFGGGTKVTVLS
notes: also called adenosine-clamping antibody SC014
B8: SC001 (antibody, human IgG1, lambda, V domains shown)
VH: QVQLVQSGGGVVQPGRSLRLSCAASGFTFSSYAMHWVRQAPGKGLEWVAVISYDGSNKYYADSVKGRFTISRDNSKNTLYLQMNSLRAEDTAVYYCARVYQGGATPYYYYGMDVWGQGTMVTVSS
VL: SYELTQPPSASGTPGQRVTVSCSGSTSNIGNHAVNWYQQLPGTAPKLLIYTNDQRPSGVPNRFSGSKSGISASLAISGLQSEDEADYYCSAWDDSLIGYVFGAGTKVTVLG
notes: also called adenosine-clamping antibody SC001
B9: SC034 (antibody, human IgG1, lambda, V domains shown)
VH: QVQLQQSGAEVKKPGASVKVSCKASGYTFTSYGISWVRQAPGQGLEWMGWISAYNGNTNYAQKLQGRVTMTTDTSTSTAYMELRSLRSDDTAVYYCARDYHSTRPDWPPFPYYYYYGMDVWGQGTTVTVSS
VL: QSVLTQPHSVSESPGKTVTISCTRSSGRIAANNVQWYQQRPGSAPTTIIYEDNRRPSGVPDRFSGSIDGSSNSASLTISGLKPEDEADYYCQSYVSTTVVFGGGTKLTVLG
notes: also called adenosine-clamping antibody SC034
B10: SC019 (antibody, human IgG1, lambda, V domains shown)
VH: EVQLVESGGGLVKPGGSLRLSCAASGFTFSDYYMSWIRQAPGKGLEWVSYISSSGSTIYYADSVKGRFTISRDNAKNSLYLQMNSLRAEDTAVYYCARASPNVNEGAFDIWGQGTMVTVSS
VL: QSVLTQPPSMSAAPGQKVTISCSGSGSNIGSSYVSWYQQLPGKAPRLLIYDNNKQVSWVPDRFSGSKSGTSASLVISGLQTGDEADYYCGTWDRSLSAGVFGGGTKVTVLG
notes: also called adenosine-clamping antibody SC019
B11: SC016 (antibody, human IgG1, lambda, V domains shown)
VH: EVQLVQSGGGLVQPGRSLRLSCAASGFTFDNHAMHWVRQAPGKGLEWVSRINWNSGGIDYADSVKGRFTISRDNAKNSLYLQMNSLRAEDTALYYCVKDRGSGWYDAFDLWGQGTMVTVSS
VL: SYELTQPPSVSVAPGQTTRIACGGDSVGSESVHWYQQRPGQAPVLVISYDSDRPSGIPERFSGSKSGNTATLTISRVEAGDEADYYCQVWNSASDHWVFGGGTKLTVLG
notes: also called adenosine-clamping antibody SC016
B12: CLA0022 Fab fragment (from CLA0022VH-F760mnP17/CLA0022VL-k0C) (Fab, V domains shown)
VH: QSLEESGGDLVKPGASLTLTCTASGFSFSSSYWIYWVRQAPGKGLEWIACIYAGVNDITYYANWAKGRFTISKTSSTTVTLQMTSLTAADTATYFCAKGSPDDAFHSWGPGTLVTVSS
VL: DVVMTQTPASVSEPVGGTVTIKCQASQSIGNYLAWYQQKPGQPPKLLIYYASNLASGVSSRFKGSRSGTEFTLTINDLECADAATYYCQCAYYDSVYVTFGGGTEVVVKR
notes: Fab prepared from the full antibody with the Pierce Fab Preparation Kit; Rabbit-derived variable regions on human constant regions; also called clamping antibody CLA0022
B13: CLA0028 Fab fragment (from CLA0028VH-F760mnP17/CLA0028VL-k0C) (Fab, V domains shown)
VH: B12 VH with V55S, N56T, D57S, I58S, N63S, S100G
VL: B12 VL with N76S, D94E, V96S
notes: also called clamping antibody CLA0028
B14: CLA0311 Fab fragment (from CLA0311VH-F760mnP17/CLA0311VL-k0C) (Fab, V domains shown)
VH: QSLEESGGGLVQPEGSLTLTCTASGFSLSSSYWICWVRQAPGKGLEWIGCIYTGSGGATHYASWAKGRFTISKTSSTTVTLQMTSLTAADTATYFCASAESGYYAGFFFAPWGPGTLVTVSS
VL: AFELTQTPSSVEAAVGGTVTIKCQASESIYSGLAWYKQKPGQPPKLLIYSASTLASGVSSRFKGSGSGTQFTLTISDLECADAATYYCQSYYGGSVTGYNTFGGGTEVVVKR
notes: Fab prepared from the full antibody with the Pierce Fab Preparation Kit; also called clamping antibody CLA0311

Sequence of CD3 antibody CE115HA146 (CE115HA146-F760mnP17/GLS3000-k0) (heavy, as listed by the source, chain 1 of 2): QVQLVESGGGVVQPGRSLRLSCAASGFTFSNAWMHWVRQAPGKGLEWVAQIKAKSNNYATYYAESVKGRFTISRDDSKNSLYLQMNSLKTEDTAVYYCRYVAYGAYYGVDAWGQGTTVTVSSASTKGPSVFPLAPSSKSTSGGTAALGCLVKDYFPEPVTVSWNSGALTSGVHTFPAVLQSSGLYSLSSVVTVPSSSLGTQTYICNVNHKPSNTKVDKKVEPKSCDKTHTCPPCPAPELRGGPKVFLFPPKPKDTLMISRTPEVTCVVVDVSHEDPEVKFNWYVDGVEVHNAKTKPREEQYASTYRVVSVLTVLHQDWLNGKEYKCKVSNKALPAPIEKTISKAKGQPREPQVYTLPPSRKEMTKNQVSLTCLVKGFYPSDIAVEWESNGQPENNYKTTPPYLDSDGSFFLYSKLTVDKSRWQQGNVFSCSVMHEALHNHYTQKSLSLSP
Sequence of CD3 antibody CE115HA146 (CE115HA146-F760mnP17/GLS3000-k0) (light, as listed by the source, chain 2 of 2): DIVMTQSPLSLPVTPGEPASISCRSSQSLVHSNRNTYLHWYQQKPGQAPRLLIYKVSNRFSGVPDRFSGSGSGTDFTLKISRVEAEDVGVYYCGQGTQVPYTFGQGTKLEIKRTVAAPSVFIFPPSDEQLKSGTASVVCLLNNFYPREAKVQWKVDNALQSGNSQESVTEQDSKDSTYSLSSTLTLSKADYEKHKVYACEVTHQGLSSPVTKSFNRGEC
Sequence of CD3 antibody CE115HA000 (CE115HA000-F760mnP17/GLS3000-k0) (VH, as listed by the source, chain 1 of 2): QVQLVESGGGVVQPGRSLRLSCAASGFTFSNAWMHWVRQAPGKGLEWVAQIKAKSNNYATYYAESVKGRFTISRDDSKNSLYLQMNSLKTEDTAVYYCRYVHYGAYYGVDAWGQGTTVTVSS
Sequence of CD3 antibody CE115HA000 (CE115HA000-F760mnP17/GLS3000-k0) (VL, as listed by the source, chain 2 of 2): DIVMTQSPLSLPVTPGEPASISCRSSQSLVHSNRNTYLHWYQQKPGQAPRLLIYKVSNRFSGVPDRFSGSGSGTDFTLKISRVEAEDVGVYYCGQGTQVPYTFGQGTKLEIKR
Sequence of CD3 antibody CE115HA056 (CE115HA056-F760mnP17/GLS3000-k0) (heavy, as listed by the source, chain 1 of 2): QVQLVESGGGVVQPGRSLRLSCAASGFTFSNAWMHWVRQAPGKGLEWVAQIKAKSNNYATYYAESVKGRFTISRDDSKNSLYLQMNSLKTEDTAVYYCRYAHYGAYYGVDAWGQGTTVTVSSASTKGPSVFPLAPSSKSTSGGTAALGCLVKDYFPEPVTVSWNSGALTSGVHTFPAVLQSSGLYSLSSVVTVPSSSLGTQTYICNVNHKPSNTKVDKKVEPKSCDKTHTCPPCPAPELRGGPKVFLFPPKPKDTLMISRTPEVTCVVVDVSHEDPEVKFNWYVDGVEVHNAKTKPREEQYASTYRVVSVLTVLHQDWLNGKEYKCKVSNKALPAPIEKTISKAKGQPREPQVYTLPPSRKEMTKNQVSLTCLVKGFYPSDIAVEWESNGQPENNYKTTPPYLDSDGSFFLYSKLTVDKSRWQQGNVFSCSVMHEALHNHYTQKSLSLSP
T5 sequence (heavy, as listed by the source, chain 1 of 2): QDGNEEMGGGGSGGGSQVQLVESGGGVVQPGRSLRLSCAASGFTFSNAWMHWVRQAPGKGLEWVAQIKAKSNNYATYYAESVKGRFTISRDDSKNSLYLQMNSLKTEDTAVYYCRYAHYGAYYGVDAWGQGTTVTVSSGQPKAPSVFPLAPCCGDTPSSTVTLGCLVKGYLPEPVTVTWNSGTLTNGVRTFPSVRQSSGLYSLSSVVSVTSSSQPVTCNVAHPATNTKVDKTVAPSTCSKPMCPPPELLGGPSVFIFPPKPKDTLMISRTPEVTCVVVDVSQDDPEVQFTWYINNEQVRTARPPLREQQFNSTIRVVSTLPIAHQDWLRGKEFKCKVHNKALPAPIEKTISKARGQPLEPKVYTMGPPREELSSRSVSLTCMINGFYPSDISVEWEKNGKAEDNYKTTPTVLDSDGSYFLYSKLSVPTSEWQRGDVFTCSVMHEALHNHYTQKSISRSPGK
T5 sequence (light, as listed by the source, chain 2 of 2): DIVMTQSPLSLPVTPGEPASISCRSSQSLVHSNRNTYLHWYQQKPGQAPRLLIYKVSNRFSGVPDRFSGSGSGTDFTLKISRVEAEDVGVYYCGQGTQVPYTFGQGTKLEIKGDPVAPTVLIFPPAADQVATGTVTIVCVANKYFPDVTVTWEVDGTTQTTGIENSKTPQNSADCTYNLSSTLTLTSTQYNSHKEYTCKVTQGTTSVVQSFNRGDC

The target in the first assay is T1, adenosine-binding antibody SMB0002hH-G1m3/SMB0002hL-k0a.
T1 construct: also called biotinylated SMB0002hH-G1m3/SMB0002hL-k0
T1 sequence (VH, as listed by the source, chain 1 of 2): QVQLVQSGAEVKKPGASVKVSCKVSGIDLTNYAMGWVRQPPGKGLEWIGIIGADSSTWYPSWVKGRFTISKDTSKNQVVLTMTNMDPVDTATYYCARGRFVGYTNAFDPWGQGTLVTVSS
T1 sequence (V domain, as listed by the source, chain 2 of 2): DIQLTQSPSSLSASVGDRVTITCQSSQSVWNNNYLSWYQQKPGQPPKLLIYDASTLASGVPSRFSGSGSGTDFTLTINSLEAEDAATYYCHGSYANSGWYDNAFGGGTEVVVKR
The assay is described as follows: BLI (OctetHTX), target on streptavidin sensor, antibody 10 ug/mL, 30 C, with and without adenosine. Here is the method:
Evaluation of the binding of each prepared and purified antibody to a complex of adenosine with an adenosine-binding antibody was performed using OctetHTX (ForteBio). Specifically, biotinylated SMB0002Fab prepared by the method described in Example 9, which was prepared with TBS or adenosine/TBS or SMB0002hH-G1m3/SMB0002hL-k0a biotinylated with EZ-Link Sulfo-NHS-SS-Biotin was bound to Dip and Read™ Streptavidin (SA) Biosensors (ForteBio). Subsequently, each purified antibody prepared at 10 μg/mL using TBS or adenosine/TBS was allowed to act, and the binding at 30° C. was evaluated.
As to B1, the binding result was “binds”.
The same measure, in the same setting: to B2 belongs “binds”.
For the molecule B3, the binding result is on record as “binds”.
Take B4: the binding result is reported as “binds”.
With B5, the binding result is given as “binds”.
In the case of B6, the binding result is recorded as “binds”.
The same measure, in the same setting: to B7 belongs “binds”; to B8, “binds”; to B9, “binds”.
On the same count and under the same terms, the value for B10 was “binds”; that for B11 was “binds”.

The next assay concerns the target CD3 antibody CE115HA000 (CE115HA000-F760mnP17/GLS3000-k0). The assay is described as follows: SPR (Biacore), 37 C; ligand antibody captured on SuRe protein A chip (1000 RU), Fab as analyte at 100 nM for 180 s; amount of binding per 1 RU of ligand. Here is the method: (§1) SuRe protein A (GE Healthcare) prepared at 25 μg/mL using Acetate4.5 (GE Healthcare) was immobilized on sensor chip CM4 at approximately 1000 RU per flow cell using an amine coupling kit (GE Healthcare).
(§2) First, to evaluate the binding specificity of the clamping antibodies, a ligand was reacted at 37° C. for 60 seconds at a flow rate of 10 μL/min to capture 1000 RU, and an analyte prepared at 100 nM was allowed to act for 180 seconds at a flow rate of 30 μL/min, and the amount of binding was measured.
As for B12, the binding result was “no binding (tested: 100 nM)”.
The same measure, in the same setting: the value for B13 was “no binding (tested: 100 nM)”.
The same measure, in the same setting: to B14 belongs “no binding (tested: 100 nM)”.

In the next assay the target is CD3 antibody CE115HA056 (CE115HA056-F760mnP17/GLS3000-k0). The description is as above. Here is the method:
as §1, §2
B12: the binding result is reported as “no binding (tested: 100 nM)”.
On the same count and under the same terms, the value for B13 was “no binding (tested: 100 nM)”; that for B14 was “no binding (tested: 100 nM)”.

For another assay, the target named is CD3 antibody CE115HA146 (CE115HA146-F760mnP17/GLS3000-k0). The assay is described as above. Here is the method:
as §1, §2
For B12, the binding result is reported as “no binding (tested: 100 nM)”.
Turning to B13, the binding result is on record as “no binding (tested: 100 nM)”.
The same measure, in the same setting: to B14 belongs “no binding (tested: 100 nM)”.

In the next assay the target is T2, CD3ε epitope-fused GPC3 antibody (hGC33VHGP01-rabCH1hG1m/hGC33VL-rabk).
T2 construct: control for recognition of the peptide alone
T2 sequence (VH, as listed by the source, chain 1 of 2): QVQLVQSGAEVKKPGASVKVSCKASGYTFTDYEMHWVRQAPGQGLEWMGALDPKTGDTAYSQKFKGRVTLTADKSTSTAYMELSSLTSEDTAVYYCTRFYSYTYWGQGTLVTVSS
T2 sequence (VL, as listed by the source, chain 2 of 2): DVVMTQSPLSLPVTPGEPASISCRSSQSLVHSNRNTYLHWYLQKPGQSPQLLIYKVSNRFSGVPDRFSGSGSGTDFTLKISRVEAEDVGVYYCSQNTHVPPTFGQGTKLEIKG
Described as above. The procedure: as §1, §2
As to B12, the binding result is reported as “no binding (tested: 100 nM)”.
Same read-out and setting: to B13 belongs “no binding (tested: 100 nM)”; to B14, “no binding (tested: 100 nM)”.

For another assay, the target named is T3, negative control IC17 (IC17Hdk-F760mnP17/IC17L-k0).
T3 construct: also called anti-KLH antibody
T3 sequence (VH, as listed by the source, chain 1 of 2): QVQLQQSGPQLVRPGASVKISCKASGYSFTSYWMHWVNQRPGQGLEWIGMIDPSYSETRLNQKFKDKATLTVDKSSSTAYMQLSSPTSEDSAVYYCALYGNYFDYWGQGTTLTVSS
T3 sequence (VL, as listed by the source, chain 2 of 2): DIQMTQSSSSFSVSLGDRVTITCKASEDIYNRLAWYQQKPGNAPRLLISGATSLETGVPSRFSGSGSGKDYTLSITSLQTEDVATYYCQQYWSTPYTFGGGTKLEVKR
The assay is described as above. The procedure: as §1, §2
Turning to B12, the binding result is listed as “no binding (tested: 100 nM)”.
Regarding B13, the binding result is listed as “no binding (tested: 100 nM)”.
On the same count and under the same terms, the value for B14 was “no binding (tested: 100 nM)”.

A further assay deals with T4, CD3ε epitope-fused CE115HA146 (CE115HAGP13-rabIgG/GLS3000-rabk).
T4 construct: stands for the antigen/antibody complex; Rabbit constant regions; also called CE115HAPG13
T4 sequence (heavy, as listed by the source, chain 1 of 2): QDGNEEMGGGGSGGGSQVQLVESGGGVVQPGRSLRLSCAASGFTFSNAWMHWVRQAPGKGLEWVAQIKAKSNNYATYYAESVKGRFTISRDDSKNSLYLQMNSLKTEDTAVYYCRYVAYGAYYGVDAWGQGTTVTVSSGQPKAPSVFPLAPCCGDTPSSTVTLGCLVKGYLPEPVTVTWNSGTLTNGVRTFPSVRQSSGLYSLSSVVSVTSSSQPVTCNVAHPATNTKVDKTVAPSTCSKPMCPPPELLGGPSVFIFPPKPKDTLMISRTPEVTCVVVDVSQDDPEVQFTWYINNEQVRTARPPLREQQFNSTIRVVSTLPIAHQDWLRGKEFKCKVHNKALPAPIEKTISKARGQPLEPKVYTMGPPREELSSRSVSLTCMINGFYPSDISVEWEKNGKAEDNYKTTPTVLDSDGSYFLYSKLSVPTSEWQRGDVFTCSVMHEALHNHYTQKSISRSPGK
Put plainly: SPR (Biacore T200), ligand captured on protein A, Fab 0-400 nM as analyte, 37 C. The procedure:
as §1
(§3) The sensor chip was regenerated by passing Glycine1.5 and 25 mM NaOH, each at a flow rate of 30 μL/min for 15 seconds. The dissociation constant KD (M) was calculated based on the association rate constant ka (1/Ms) and the dissociation rate constant kd (1/s), which are kinetic parameters calculated from the sensorgram obtained by the measurement. Biacore T200 Evaluation Software (GE Healthcare) was used for calculation of each parameter.
For orientation: In SPR one partner is held on a chip, and binding of the other changes the refractive index at the surface.
For the molecule B12, the Kd came to 17 nM.
Same read-out and setting: to B13 belongs 78 nM.

Another assay addresses T5, CD3ε epitope-fused CE115HA056 (CE115HAGP12-rabIgG/GLS3000-rabk).
T5 construct: rabbit constant regions; also called CE115HAPG12
The assay is described as above. The procedure:
as §1, §3
Consider B12, for which binding was characterised by a dissociation constant (Kd) of 14 nM.
Still for that read-out and setting: the value for B13 was 74 nM.

Usually Kd stands for the concentration at which binding is half-saturated. Lower therefore signals tighter binding.
